Patent US20250154281A1 (Amgen, published 2025)
Values belong to the binder of their own block, whether it stands above or below them.

What was measured:
[1] = biological target: T1, human STEAP1 (Six Trans-membrane Epithelial Antigen of the Prostate 1) (human, UniProt Q9UHE8 1-339); experiment: cell-based or functional assay
[2] = biological target: T1, human STEAP1 (Six Trans-membrane …); experiment: flow cytometry on C4-2B-Luc cells, APC anti-human IgG, MFI
Description: (§1) C4-2B-Luc cells were incubated with increasing concentrations of Ab-A1 XmAb²⁺¹, Ab-A1 Xmab, Ab-B1 Xmab, Ab-Mx1, Ab-Mx2 and Ab-Mx3 up to […], for 1 hour at 4° C. Cell-bound antibodies were detected by flow cytometry after incubation with an APC-conjugated anti-human IgG secondary antibody and mean fluorescence intensity (MFI) of the APC channel at increasing concentrations of respective antibodies tested.

[3] = biological target: T1, human STEAP1 (Six Trans-membrane …); experiment: flow cytometry on C4-2B-Luc cells
Description: as §1

[4] = biological target: T1, human STEAP1 (Six Trans-membrane …); experiment: cell-based or functional assay; remark: listed apart in the source
[5] = biological target: T1, human STEAP1 (Six Trans-membrane …); experiment: flow cytometry on C4-2B luc cells, MFI (repeat experiment)
Description: The experiment was repeated with Ab-A in various formats (Ab-A (traditional, monospecific antibody, not humanized), Ab-A1 XmAb format, Ab-A1 Xmab²⁺¹ format, and Ab-A2(N67Q) Xmab²⁺¹ format (with N67Q modification)) and Ab-B XmAb format. C4-2B-Luc cells were incubated with increasing concentrations of anti-STEAP1 XmAb or XmAb²⁺¹ molecules up to […], for one hour at 4° C. […] Results are shown in FIGS. 12A-12C and FIG. 13 and Table 4 below.

[6] = biological target: T2, recombinant human CD3ε-Fc (human, UniProt P07766 23-126); experiment: SPR, CD3ε-Fc immobilized on CM5 chip; ^a data generated using BIAcore
T2 construct: also called human CD3E-Fc; not shown: Fc part
T2 sequence (P07766 23-126 limits assumed): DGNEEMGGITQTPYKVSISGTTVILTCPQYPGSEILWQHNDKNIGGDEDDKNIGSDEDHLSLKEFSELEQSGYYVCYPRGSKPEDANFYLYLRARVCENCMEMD
Description: (§2) Recombinant human CD3E-Fc and cynomolgus CD3ε-Fc were immobilized on a CM5 chip surface using standard amine coupling procedure at ˜60 RU. Ab-A2(N67Q) XmAb²⁺¹ was injected concentrations of 100, 33.3, 11.1 and 3.7 nM. The association and dissociation rates of Ab-A2(N67Q) XmAb²⁺¹ interaction to the ligands were recorded for 120 sec and 300 sec, respectively, as set forth below in Table 8. The equilibrium dissociation constant (KD) values were derived as a ratio of the dissociation rate constant and the association rate constant (koff/kₒₙ).

[7] = biological target: T3, recombinant cynomolgus CD3ε-Fc (cynomolgus, UniProt Q95LI5 22-117, limits assumed); experiment: as above
T3 construct: not shown: Fc part
T3 sequence (looked up): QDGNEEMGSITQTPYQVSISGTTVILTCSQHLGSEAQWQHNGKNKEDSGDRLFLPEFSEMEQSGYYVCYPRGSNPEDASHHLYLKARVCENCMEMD
Description: as §2

[8] = biological target: T2, recombinant human CD3ε-Fc; experiment: ^b data generated using Octet
[9] = biological target: T3, recombinant cynomolgus CD3ε-Fc; experiment: ^b data generated using Octet
[10] = biological target: T1, human STEAP1 (Six Trans-membrane …); experiment: cell-based or functional assay; remark: listed apart in the source
[11] = biological target: T1, human STEAP1 (Six Trans-membrane …); experiment: cell-based or functional assay; remark: listed apart in the source
[12] = biological target: T1, human STEAP1 (Six Trans-membrane …); experiment: cell-based or functional assay; remark: listed apart in the source

T1 sequence (Q9UHE8 whole entry): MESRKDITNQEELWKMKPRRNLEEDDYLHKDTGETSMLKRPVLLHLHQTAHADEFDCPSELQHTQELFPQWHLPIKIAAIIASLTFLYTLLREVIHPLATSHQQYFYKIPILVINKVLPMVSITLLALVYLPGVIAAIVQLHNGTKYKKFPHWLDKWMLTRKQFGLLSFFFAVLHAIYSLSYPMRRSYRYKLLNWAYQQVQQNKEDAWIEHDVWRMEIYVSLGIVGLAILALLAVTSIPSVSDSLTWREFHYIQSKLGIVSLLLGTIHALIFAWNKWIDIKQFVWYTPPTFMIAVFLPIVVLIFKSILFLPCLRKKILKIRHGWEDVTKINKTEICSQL

TDCC EC50 [1]: 6 pM
EC50 [2]: 2200 pM
fold lower binding EC50 than Ab-A1 Xmab [3]: 65 fold
TDCC EC50, C4-2B luc cells [4]: 6.3 pM
EC50 [5]: 2200 pM
B1: Ab-A1 XmAb^2+1 (humanized anti-STEAP1/anti-CD3 heterodimeric antibody) (bispecific antibody)
heavy 1: QVQLVQSGAEVKKPGASVKVSCKASGYTFSTYWIEWVRQAPGQRLEWMGEILPGSGNTDFNEKFQGRVTFTADTSSDTAYMELSSLRSEDTAVYYCTRWGYYGTRGYFNVWGQGTLVTVSSASTKGPSVFPLAPSSKSTSGGTAALGCLVKDYFPEPVTVSWNSGALTSGVHTFPAVLQSSGLYSLSSVVTVPSSSLGTQTYICNVNHKPSNTKVDKKVEPKSCGGGGSGGGGSEVQLVESGGGLVQPGGSLRLSCAASGFTFSTYAMNWVRQAPGKGLEWVGRIRSKYNNYATYYADSVKGRFTISRDDSKNTLYLQMNSLRAEDTAVYYCVRHGNFGDSYVSWFAYWGQGTLVTVSSGKPGSGKPGSGKPGSGKPGSQAVVTQEPSLTVSPGGTVTLTCGSSTGAVTTSNYANWVQQKPGKSPRGLIGGTNKRAPGVPARFSGSLLGGKAALTISGAQPEDEADYYCALWYSNHWVFGGGTKLTVLGGGGSGGGGSKTHTCPPCPAPPVAGPSVFLFPPKPKDTLMISRTPEVTCVVVDVKHEDPEVKFNWYVDGVEVHNAKTKPREEQYNSTYRVVSVLTVLHQDWLNGKEYKCKVSNKALPAPIEKTISKAKGQPREPQVYTLPPSREQMTKNQVKLTCLVKGFYPSDIAVEWESNGQPENNYKTTPPVLDSDGSFFLYSKLTVDKSRWQQGNVFSCSVMHEALHNHYTQKSLSLSPGK
heavy 2: QVQLVQSGAEVKKPGASVKVSCKASGYTFSTYWIEWVRQAPGQRLEWMGEILPGSGNTDFNEKFQGRVTFTADTSSDTAYMELSSLRSEDTAVYYCTRWGYYGTRGYFNVWGQGTLVTVSSASTKGPSVFPLAPSSKSTSGGTAALGCLVKDYFPEPVTVSWNSGALTSGVHTFPAVLQSSGLYSLSSVVTVPSSSLGTQTYICNVNHKPSDTKVDKKVEPKSCDKTHTCPPCPAPPVAGPSVFLFPPKPKDTLMISRTPEVTCVVVDVKHEDPEVKFNWYVDGVEVHNAKTKPREEEYNSTYRVVSVLTVLHQDWLNGKEYKCKVSNKALPAPIEKTISKAKGQPREPQVYTLPPSREEMTKNQVSLTCDVSGFYPSDIAVEWESDGQPENNYKTTPPVLDSDGSFFLYSKLTVDKSRWEQGDVFSCSVMHEALHNHYTQKSLSLSPGK
light: EIVLTQSPATLSLSPGERATLSCRASSSVSYMHWFQQKPGQAPRLLIYSTSNLASGIPARFSGSGSGTDYTLTISSLEPEDFAVYYCQQRRSFPYTFGQGTKLEIKRTVAAPSVFIFPPSDEQLKSGTASVVCLLNNFYPREAKVQWKVDNALQSGNSQESVTEQDSKDSTYSLSSTLTLSKADYEKHKVYACEVTHQGLSSPVTKSFNRGEC
notes: XmAb^2+1 format: first monomer VH-CH1-(anti-CD3 scFv)-Fc, second monomer VH-CH1-Fc, common light chain; two STEAP1 Fabs and one CD3 scFv; monomers 19 or 20 / 18 or 199 / light 17; scFv 44; also called XmAb^2+1 Ab-A1; copies: 1 + 1 + 2

Kd [6]: 16300 pM
Kd [7]: 15100 pM
Kd [8]: 27600 pM
Kd [9]: 25800 pM
TDCC EC50, 293T cells stably transfected with human STEAP1 [10]: 0.1 pM
TDCC EC50, A673 cells [11]: 122 pM
TDCC EC50, EBC1 cells [11]: 162 pM
TDCC EC50, OE33 cells [11]: 145 pM
TDCC EC50, C4-2B luc cells [4]: 5.4 pM
TDCC EC50, 22RV-1 cells [12]: 257 pM
TDCC EC50, C4-2B cells [12]: 6.8 pM
TDCC EC50, HBSMC cells [12]: 1520 pM
TDCC EC50, HCT116 cells [12]: 336 pM
TDCC EC50, HUCCT1 cells [12]: > 10000 pM
TDCC EC50, IM-95 cells [12]: 345 pM
TDCC EC50, LOX-IMVI cells [12]: 36.6 pM
TDCC EC50, NCIH1869 cells [12]: > 10000 pM
TDCC EC50, PC3 cells [12]: > 10000 pM
TDCC EC50, SK-N-MC cells [12]: 10.4 pM
TDCC EC50, SNU5 cells [12]: 6.2 pM
TDCC EC50, TYKNU cells [12]: 1720 pM
TDCC EC50, VCaP cells [12]: 722 pM
EC50 [5]: 1200 pM
B2: Ab-A2(N67Q) XmAb^2+1 (variant of Ab-A1 XmAb^2+1 having a N67Q modification) (bispecific antibody)
heavy 1: QVQLVQSGAEVKKPGASVKVSCKASGYTFSTYWIEWVRQAPGQRLEWMGEILPGSGQTDFNEKFQGRVTFTADTSSDTAYMELSSLRSEDTAVYYCTRWGYYGTRGYFNVWGQGTLVTVSSASTKGPSVFPLAPSSKSTSGGTAALGCLVKDYFPEPVTVSWNSGALTSGVHTFPAVLQSSGLYSLSSVVTVPSSSLGTQTYICNVNHKPSNTKVDKKVEPKSCGGGGSGGGGSEVQLVESGGGLVQPGGSLRLSCAASGFTFSTYAMNWVRQAPGKGLEWVGRIRSKYNNYATYYADSVKGRFTISRDDSKNTLYLQMNSLRAEDTAVYYCVRHGNFGDSYVSWFAYWGQGTLVTVSSGKPGSGKPGSGKPGSGKPGSQAVVTQEPSLTVSPGGTVTLTCGSSTGAVTTSNYANWVQQKPGKSPRGLIGGTNKRAPGVPARFSGSLLGGKAALTISGAQPEDEADYYCALWYSNHWVFGGGTKLTVLGGGGSGGGGSKTHTCPPCPAPPVAGPSVFLFPPKPKDTLMISRTPEVTCVVVDVKHEDPEVKFNWYVDGVEVHNAKTKPCEEQYGSTYRCVSVLTVLHQDWLNGKEYKCKVSNKALPAPIEKTISKAKGQPREPQVYTLPPSREQMTKNQVKLTCLVKGFYPSDIAVEWESNGQPENNYKTTPPVLDSDGSFFLYSKLTVDKSRWQQGNVFSCSVMHEALHNHYTQKSLSLSPGK
heavy 2: QVQLVQSGAEVKKPGASVKVSCKASGYTFSTYWIEWVRQAPGQRLEWMGEILPGSGQTDFNEKFQGRVTFTADTSSDTAYMELSSLRSEDTAVYYCTRWGYYGTRGYFNVWGQGTLVTVSSASTKGPSVFPLAPSSKSTSGGTAALGCLVKDYFPEPVTVSWNSGALTSGVHTFPAVLQSSGLYSLSSVVTVPSSSLGTQTYICNVNHKPSDTKVDKKVEPKSCDKTHTCPPCPAPPVAGPSVFLFPPKPKDTLMISRTPEVTCVVVDVKHEDPEVKFNWYVDGVEVHNAKTKPCEEEYGSTYRCVSVLTVLHQDWLNGKEYKCKVSNKALPAPIEKTISKAKGQPREPQVYTLPPSREEMTKNQVSLTCDVSGFYPSDIAVEWESDGQPENNYKTTPPVLDSDGSFFLYSKLTVDKSRWEQGDVFSCSVMHEALHNHYTQKSLSLSPGK
light: EIVLTQSPATLSLSPGERATLSCRASSSVSYMHWFQQKPGQAPRLLIYSTSNLASGIPARFSGSGSGTDYTLTISSLEPEDFAVYYCQQRRSFPYTFGQGTKLEIKRTVAAPSVFIFPPSDEQLKSGTASVVCLLNNFYPREAKVQWKVDNALQSGNSQESVTEQDSKDSTYSLSSTLTLSKADYEKHKVYACEVTHQGLSSPVTKSFNRGEC
notes: XmAb^2+1 format (two STEAP1 Fabs, one anti-CD3 scFv); monomers 19 or 20 / 18 or 199 / light 17; scFv 44; also called Ab-A2 XmAb^2+1; copies: 1 + 1 + 2
